Test system: RBC ghost membrane 105 kDa protein (unidentified; disulfide-linked dimer, ~210 kDa non-reduced) (Homo sapiens)
Assay: filter
Conditions: Scatchard on RBC ghosts, 1600 sites per cell; target assigned to 105 kDa protein by crosslinking

Sequence: AACTCAGTGGTAGGTAACGGTT [c56t]
- Kd: 4 nM

Reference: patent publication US20030027781
